Assay results published in patent US20190100600A1 (BIONOMICS, published 2019).
One block for each binder: values may come before it.

Tests used:
[1] = target: T1, purified recombinant LGR5 ectodomain-IgG-Fc fusion (human, UniProt O75473 22-561); experiment: ELISA of the ternary complex: R-spondin 3 preincubated with LGR5-Fc, co-receptor-Fc coated
T1 construct: also called human LGR5-Fc; hLGR5-Fc; not shown: IgG Fc
T1 sequence: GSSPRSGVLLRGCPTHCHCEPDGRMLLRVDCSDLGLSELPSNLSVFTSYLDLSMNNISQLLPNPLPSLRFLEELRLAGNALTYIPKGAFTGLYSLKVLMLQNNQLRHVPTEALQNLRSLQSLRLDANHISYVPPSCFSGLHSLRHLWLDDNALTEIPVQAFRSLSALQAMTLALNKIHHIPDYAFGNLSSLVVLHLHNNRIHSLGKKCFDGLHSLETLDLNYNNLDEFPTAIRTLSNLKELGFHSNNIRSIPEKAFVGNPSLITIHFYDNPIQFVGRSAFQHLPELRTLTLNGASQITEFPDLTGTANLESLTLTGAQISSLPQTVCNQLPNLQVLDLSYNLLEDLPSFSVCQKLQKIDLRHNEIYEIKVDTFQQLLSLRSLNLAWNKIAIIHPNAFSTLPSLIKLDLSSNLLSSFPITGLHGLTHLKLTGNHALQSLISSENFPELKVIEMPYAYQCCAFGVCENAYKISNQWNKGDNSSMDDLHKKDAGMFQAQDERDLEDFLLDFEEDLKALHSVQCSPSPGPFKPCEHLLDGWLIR

[2] = target: T1, purified recombinant LGR5 …; experiment: ELISA of the ternary complex: R-spondin 4 preincubated with LGR5-Fc, co-receptor-Fc coated
Procedure: (§1) RNF43-Fc, ZNRF3-Fc, and LRP6-Fc were coated on a 96-well high binding plate at 4 μg/mL in 1×PBS. The plate was incubated overnight at 4° C. and blocked with PBS+1% BSA. […] Triplicate wells were used for each condition was tested in triplicate. […] 1:10,000 dilution of anti-mouse IgG HRP (JIR) was used for detection. […] Data analysis was done using GraphPad Prism 6 program.

[3] = target: T1, purified recombinant LGR5 …; experiment: ELISA of the ternary complex: R-spondin 1 preincubated with LGR5-Fc, co-receptor-Fc coated
Procedure: as §1

[4] = target: T1, purified recombinant LGR5 …; experiment: ELISA of the ternary complex: R-spondin 2 preincubated with LGR5-Fc, co-receptor-Fc coated
Procedure: as §1

- binding result [1]: binds
B1: human R-spondin 3 (ligand, UniProt Q9BXY4 22-272, looked up)
chain: QNASRGRRQRRMHPNVSQGCQGGCATCSDYNGCLSCKPRLFFALERIGMKQIGVCLSSCPSGYYGTRYPDINKCTKCKADCDTCFNKNFCTKCKSGFYLHLGKCLDNCPEGLEANNHTMECVSIVHCEVSEWNPWSPCTKKGKTCGFKRGTETRVREIIQHPSAKGNLCPPTNETRKCTVQRKKCQKGERGKKGRERKRKKPNKGESKEAIPDSKSLESSKEIPEQRENKQQQKKRKVQDKQKSVSVSTVH
notes: mature; Bought; printed as 'full length constructs expressed in mammalian cells'; also called RSPO3; R-spo3

- binding result [2]: binds
B2: human R-spondin 4 (ligand, UniProt Q2I0M5 20-234, looked up)
chain: LNRRKKQVGTGLGGNCTGCIICSEENGCSTCQQRLFLFIRREGIRQYGKCLHDCPPGYFGIRGQEVNRCKKCGATCESCFSQDFCIRCKRQFYLYKGKCLPTCPPGTLAHQNTRECQGECELGPWGGWSPCTHNGKTCGSAWGLESRVREAGRAGHEEAATCQVLSESRKCPIQRPCPGERSPGQKKGRKDRRPRKDRKLDRRLDVRPRQPGLQP
notes: mature; Bought; printed as 'full length constructs expressed in mammalian cells'; also called RSPO4; R-spo4

- binding result [3]: binds
B3: human R-spondin 1 (ligand, UniProt Q2MKA7 21-263, looked up)
chain: SRGIKGKRQRRISAEGSQACAKGCELCSEVNGCLKCSPKLFILLERNDIRQVGVCLPSCPPGYFDARNPDMNKCIKCKIEHCEACFSHNFCTKCKEGLYLHKGRCYPACPEGSSAANGTMECSSPAQCEMSEWSPWGPCSKKQQLCGFRRGSEERTRRVLHAPVGDHAACSDTKETRRCTVRRVPCPEGQKRRKGGQGRRENANRNLARKESKEAGAGSRRRKGQQQQQQQGTVGPLTSAGPA
notes: mature; Bought; printed as 'full length constructs expressed in mammalian cells'; also called RSPO1; R-spo1

- binding result [4]: binds
B4: human R-spondin 2 (ligand, UniProt Q6UXX9 22-243, looked up)
chain: QGNRWRRSKRASYVSNPICKGCLSCSKDNGCSRCQQKLFFFLRREGMRQYGECLHSCPSGYYGHRAPDMNRCARCRIENCDSCFSKDFCTKCKVGFYLHRGRCFDECPDGFAPLEETMECVEGCEVGHWSEWGTCSRNNRTCGFKWGLETRTRQIVKKPVKDTILCPTIAESRRCKMTMRHCPGGKRTPKAKEKRNKKKKRKLIERAQEQHSVFLATDRANQ
notes: mature; Bought; printed as 'full length constructs expressed in mammalian cells'; also called RSPO2; R-spo2
